Test results from the supplement of paper PMC10567573.
± gives the standard deviation.

Test: protein stability index of a GFP-peptide fusion (GPS, HEK-293T) (PSI 1-6); higher = more stable
[1] = treatment: DMSO, c terminus: a fixed tail appended
[2] = treatment: MLN4924 1 uM, 8 h, c terminus: a fixed tail appended
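Also: 24-mer peptide tiles fused after GFP, lentivirally expressed, FACS-sorted into six equal bins by GFP/DsRed ratio, decoded by Illumina sequencing, PSI is the read-weighted mean bin number.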

Sequence | protein stability index [1] | protein stability index [2] | protein stability index (treatment: DMSO, c terminus: native) | protein stability index (treatment: MLN4924 1 uM, 8 h, c terminus: native)
DRTWTLCGTPEYLAPEVIQSKGHG [PRKX] | 3.91 ± 0.48 | 3.97 ± 0.35 | – | –
IPNAASEEGDEDDWASNKVMFKIG [WEE1] | 4.62 ± 0.13 | 4.28 ± 0.3 | – | –
SFAQLKNLKWLDLKDNPLDPVLAK [LRRC59] | 2.98 ± 0.096 | 2.96 ± 0.33 | – | –
VEKLLREEAEGARWTSYRFSRVCR [TRIM35] | 2.89 ± 0.28 | 3.22 ± 0.2 | – | –
GGDGDDMEIFMEEMREIRRKLREL [BEX3] | 3.13 ± 0.49 | 2.04 ± 0.4 | – | –
RVDHGAEIITQSPGRSSVASPRRL [MAP2] | 4.45 ± 0.13 | 4.71 ± 0.17 | – | –
EDILNDPSQSEVMGEPHLMVEYKL [POMP] | 3.7 ± 0.17 | 3.72 ± 0.18 | – | –
AGISPLQQMVASGTGAVVTSLFMT [SLC25A39] | 2.02 ± 0.57 | 2.17 ± 0.5 | – | –
RVSNPGRLAELLLLETDAGPAASE [GADD45A] | 4.46 ± 0.28 | 4.28 ± 0.26 | – | –
SELRTKVQEQQKQLQDQDQKLLEQ [FBXO28] | 5.5 ± 0.19 | 5.481 ± 0.034 | – | –
EAIPILRAALKLEPSNKTIHAELS [FKBP8] | 2.49 ± 0.32 | 2.65 ± 0.14 | – | –
IKRLWKDSGVQACFNRSREYQLND [GNAI1] | 2.4 ± 0.41 | 2.44 ± 0.72 | – | –
AANKAVKCAEVIIPLLSSVNVSDR [ANKRD44] | 2.9 ± 0.27 | 2.98 ± 0.23 | – | –
ELLTGQPLWPGKSDVDQLYLIIRT [CDKL4] | 2.31 ± 0.69 | 2.24 ± 0.43 | – | –
RVILEIDNARLAVDDFRLKYENEL [KRT13] | 2.4 ± 0.25 | 2.66 ± 0.45 | – | –
FDTLATVGTGTFGRVHLVKEKTAK [PRKX] | 4.66 ± 0.22 | 4.54 ± 0.41 | – | –
ECKKLFQVPEEMSRCRNSYTEQEL [DLC1] | 3.76 ± 0.092 | 4 ± 0.22 | – | –
FFNTLHVGGTIRTCQKFLIQYNRR [POP5] | 2.02 ± 0.19 | 2.06 ± 0.23 | – | –
VAQLEDRRSTTDLRGTQFDYERGK [ZSWIM9] | 5.03 ± 0.18 | 5.07 ± 0.24 | – | –
DHCAQQDHGCEQLCLNTEDSFVCQ [MATN2] | 5 ± 0.075 | 5.08 ± 0.16 | – | –
GEQDCCGERVVINISGLRFETQLK [KCNA3] | 2.52 ± 0.21 | 2.57 ± 0.35 | – | –
TVDIQNPDITSSRYRGLPAPGPSP [WAS] | 4.49 ± 0.24 | 4.7 ± 0.18 | – | –

Sequence | protein stability index [1] | protein stability index [2] | protein stability index (treatment: DMSO, c terminus: native) | protein stability index (treatment: MLN4924 1 uM, 8 h, c terminus: native)
SVNEHTEEGESLLCLACSAGYYEL [ANKRD17] | 2.64 ± 0.38 | 2.93 ± 0.29 | – | –
REDNSGSDVLIGDILVLLGASLYA [SLC35F2] | 2.79 ± 0.18 | 2.99 ± 0.61 | – | –
NPWNWGKLAEAYLNLGPALSAALA [C8orf76] | 2.57 ± 0.26 | 2.44 ± 0.15 | – | –
FDRVDENNPEYLRERNMAPDLRQD [ADD1] | 5.1 ± 0.064 | 5.32 ± 0.25 | – | –
PMPVSQECFETLRGDERILSILRH [CHGA] | 3.29 ± 0.23 | 3.02 ± 0.46 | – | –
NSNGGNLNSPPGPHSAKTEEHTTI [CDC14A] | 5.28 ± 0.17 | 5.49 ± 0.2 | – | –
VLCLLAADEDDDRDVALQIHFTLI [GADD45A] | 3.49 ± 2.2 | 2.15 ± 1 | – | –
LEEGSSFWNQGLTWKVLFCSMSAT [CLCN6] | 3.06 ± 0.55 | 2.63 ± 0.67 | – | –
RQNVPRKVPNHYIAIPEWFLSENA [CPXM2] | 2.82 ± 0.23 | 3.05 ± 0.5 | – | –
DHKEPKEEINKNISDFGRQQLLPP [EHMT1] | 5.1 ± 0.2 | 5.16 ± 0.21 | – | –
LKASMRELGLLIFFLFIGVILFSS [KCNA1] | 2.33 ± 0.45 | 2.31 ± 0.48 | – | –
EKQMEEKRRANQKSSAQGPIPWFL [PPEF2] | 3.71 ± 0.17 | 3.68 ± 0.32 | – | –
LLDRARGAAAQGQTQTVAAQAQAL [PI4K2A] | 4.3 ± 0.29 | 4.38 ± 0.2 | – | –
HHREGLLAIFKSGGIPALVKMLGS [CTNNB1] | 2.82 ± 0.39 | 2.71 ± 0.64 | – | –
VQEVMEEEWNALQSVENCPEDLAQ [RPAIN] | 5.51 ± 0.21 | 5.48 ± 0.089 | – | –
CGPPSLGAVLALVAIFIMSLNKRH [MFSD9] | 3.3 ± 0.89 | 3.41 ± 1.1 | – | –
VTLQCLAARALDKNKIPYKGFIPE [FEM1A] | 2.69 ± 0.27 | 2.67 ± 0.28 | – | –
VPEEEQAANKGEEKKDDENIPMET [SMARCE1] | 5.63 ± 0.19 | 5.68 ± 0.27 | – | –
PGYLPYSPEPPSLYGALNPQYEFK [IRX6] | 2.87 ± 0.36 | 3.16 ± 0.33 | – | –
ERQDMYQCLVEGCTEKFKTSRDRK [ZNF511] | 4.09 ± 0.48 | 4.29 ± 0.25 | – | –
DDEEVDTHFASQEFFSANAISDQL [ADAMTSL2] | 5.27 ± 0.23 | 5.21 ± 0.15 | – | –
PVPATAPSPAPAVAAAAAATTAAT [SNAP91] | 5.32 ± 0.16 | 5.25 ± 0.097 | – | –

Sequence | protein stability index [1] | protein stability index [2] | protein stability index (treatment: DMSO, c terminus: native) | protein stability index (treatment: MLN4924 1 uM, 8 h, c terminus: native)
RENSKPRAILKPRKVCVGGKRRKD [PPP2R2B] | 4.73 ± 0.35 | 4.89 ± 0.34 | – | –
FPELGYSYGGGSASSQHSEGSRSS [DVL3] | 3.39 ± 0.28 | 4.03 ± 0.53 | – | –
VEGFRVTLVDEGDLYNWEVAIFGP [CDC34] | 3.11 ± 0.82 | 2.85 ± 0.95 | – | –
QGMEVDLVTGLAIEEACYAQTIPT [AUH] | 3.73 ± 0.21 | 3.53 ± 0.2 | – | –
KKQLADETLLKVDLENRCQSLTED [LMNB1] | 5.13 ± 0.23 | 5.31 ± 0.076 | – | –
SLLRPLNSLAALDLSGIQTSDAAF [ZER1] | 2.87 ± 0.15 | 2.9 ± 0.24 | – | –
DFHYCDREHVCRKDQRNPPSLGRV [RBMY1A1] | 3.27 ± 0.27 | 3.8 ± 0.4 | – | –
VDWDEEYPPQMGEEYSQIIYSTKL [BTBD10] | 3.49 ± 0.15 | 3.55 ± 0.41 | – | –
RKGELVTASKAIIEKEYQPHVIVS [ADD1] | 3.62 ± 0.18 | 3.97 ± 0.21 | – | –
TDFFKNIMNFIDIVAIIPYFITLG [KCNA1] | 3.22 ± 0.62 | 3.6 ± 0.2 | – | –
TQLTQNAVSCPYLPSNLLKKFRSS [KCNA4] | 3.32 ± 0.37 | 3.39 ± 0.2 | – | –
HSFELDEKALASILLQDHIRDLDV [ATL3] | 3.26 ± 0.33 | 3.26 ± 0.29 | – | –
GGYGGGVSCGFGGGAGSGFGGGYG [KRT13] | 2.23 ± 0.19 | 2.38 ± 0.28 | – | –
YERTLGQYQYERYGAVELSGAGRR [IRX6] | 3.75 ± 0.36 | 3.81 ± 0.3 | – | –
NRRLRALEEQGATWRHRETLIIAV [FATE1] | 2.46 ± 0.39 | 2.22 ± 0.15 | – | –
KVNLCGHWYYSKACCRSCRPPHS [ADAMTSL2] | – | – | 2.86 ± 0.57 | 3.17 ± 0.54
EDVPLAAKLVDLPCVIESLRTLDK [TAF7L] | 3.64 ± 0.29 | 3.48 ± 0.21 | – | –
DITRYYLCLQLRDDIVSGRLPCSF [EPB41L3] | 2.97 ± 0.57 | 2.63 ± 0.5 | – | –
SGAGGTGGPAGQAGRGGAAGTAGV [MYOZ1] | 5.07 ± 0.2 | 4.93 ± 0.17 | – | –
RLPGGGWTLRRTKELRKDYQGPGT [DYRK1B] | 3.14 ± 0.26 | 3.43 ± 0.35 | – | –
LIPGDAYTDYVATRWYRAPELLVG [CDKL4] | 2.18 ± 0.22 | 2.18 ± 0.071 | – | –
